The target of assay [1] is amylospheroid 42 (Homo sapiens (Human)) (UniProt P05067). The experiment in a line: SPR (BIAcore), antigen on CM5 chip, antibody in solution. A general note: In SPR one partner is held on a chip, and binding of the other changes the refractive index at the surface.
Assay [2] addresses monomeric amyloid β40-protein (Aβ1-40). The assay is described as above.
In assay [3] the target is Aβ fibril (42 fibril) prepared from 42Aβ (Homo sapiens (Human)) (UniProt P05067). The assay is described as above.
Assay [4] addresses amylospheroid 42 (Homo sapiens (Human)) (UniProt P05067). The experiment in a line: SPR, ratio of Kd values (42 fibril against 42ASPD).
Assay [5] has the same target. The experiment in a line: SPR, ratio of Kd values (40Aβ against 42ASPD).
The target of assay [6] is commercially available amyloid precursor protein sAPPα (Sigma) (UniProt P05067). The experiment in a line: competitive ELISA: antibody pre-reacted with sAPPα in solution, then ASPD solid-phase plate.
Assay [7] addresses ASPD (amylospheroid; Aβ species not stated). The assay can be described thus: competitive ELISA: antibody pre-reacted with ASPD in solution, then ASPD solid-phase plate.
Assay [8] concerns the target amylospheroid 42 (Homo sapiens (Human)) (UniProt P05067). The assay can be described thus: SPR (BIAcore 3000), antigen on CM5 chip, antibody in solution.
The target in assay [9] is monomeric amyloid β40-protein (Aβ1-40). Described as above.
The target of assay [10] is Aβ fibril prepared from amyloid β40 (Homo sapiens (Human)) (UniProt P05067). The description is as above.
Assay [11] has as its target monomeric amyloid β42-protein (Aβ1-42). Described as above.

For orientation: Kd means the equilibrium constant for the complex coming apart. The low end stands for higher affinity, the high end for lower affinity. By IC50 is commonly meant the midpoint of a concentration-inhibition curve. Low readings indicate greater potency, high ones weaker potency.

Chain of monomeric amyloid β40-protein (Aβ1-40) (peptide, as listed by the source): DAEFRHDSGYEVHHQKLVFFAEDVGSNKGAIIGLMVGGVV
Chain of monomeric amyloid β42-protein (Aβ1-42) (peptide, as listed by the source): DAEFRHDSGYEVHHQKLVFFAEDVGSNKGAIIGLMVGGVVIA

On to “anti-Aβ antibody 3D6 (US 20030165496 A1), produced as a mouse IgG2b/κ molecule”, for which the Kd in [1] was 0.115 nM; in [2], 3.93 nM; in assay [3], 0.231 nM. Further, the fold higher affinity with ASPD than with amyloid fibril in assay [4] was determined as 2 times. In addition, the fold higher affinity with ASPD than with amyloid β-monomer in [5] was found to be 34 times.

With “commercially available anti-amyloid β antibody 6E10 (Senetek)”, the IC50 in assay [6] is 16.1 nM; in assay [7], 3.7 nM. The dissociation constant (Kd) in assay [8] stood at 18.3 nM; in assay [9], 37.3 nM; in assay [10], 1.33 nM; in assay [11] it was 17.2 nM.

The values above are taken from patent US20100297662A1.
